The record followed here is patent publication EP1161455B1.

For assay [1], the target named is HIV-1 Env (LAV) (HIV-1 (LAV)) (UniProt P03377). The experiment in a line: cell-based or functional assay.
Assay [2] deals with HIV-1 wildtype (WT) SF162 Env (HIV-1 (SF162)) (UniProt P19550). The experiment in a line: cell-based or functional assay.

On to MAb 17b (antibody), for which, in assay [1], the % control, Standard Assay (target cells with CXCR4 and CD4, no sCD4); 17b 0.1 µg/ml turned out to be 93.4 % control; the % control, Standard Assay (target cells with CXCR4 and CD4, no sCD4); 17b 0.5 µg/ml is 104 % control; the % control, Standard Assay (target cells with CXCR4 and CD4, no sCD4); 17b 1 µg/ml came out at 94.1 % control; the % control, Standard Assay (target cells with CXCR4 and CD4, no sCD4); 17b 5 µg/ml is 119 % control. In assay [1], this substance yielded a % control, sCD4 Assay (target cells with CXCR4 alone, sCD4 200 nM added); 17b 0.1 µg/ml of 114 % control; a % control, sCD4 Assay (target cells with CXCR4 alone, sCD4 200 nM added); 17b 0.5 µg/ml of 39.2 % control; a % control, sCD4 Assay (target cells with CXCR4 alone, sCD4 200 nM added); 17b 1 µg/ml of 14.1 % control; a % control, sCD4 Assay (target cells with CXCR4 alone, sCD4 200 nM added); 17b 5 µg/ml of 0 % control. Moreover, in assay [1], the β-gal, Standard Assay (target cells with CXCR4 and CD4, no sCD4); 17b 0.1 µg/ml; no MAb 42.3 worked out at 39.5; the β-gal, Standard Assay (target cells with CXCR4 and CD4, no sCD4); 17b 0.5 µg/ml amounted to 43.9; the β-gal, Standard Assay (target cells with CXCR4 and CD4, no sCD4); 17b 1 µg/ml stood at 39.8; the β-gal, Standard Assay (target cells with CXCR4 and CD4, no sCD4); 17b 5 µg/ml was determined as 50.5. In assay [1], this substance yielded a β-gal, sCD4 Assay (target cells with CXCR4 alone, sCD4 200 nM added); 17b 0.1 µg/ml; no MAb 11.89 of 13.6; a β-gal, sCD4 Assay (target cells with CXCR4 alone, sCD4 200 nM added); 17b 0.5 µg/ml of 4.66; a β-gal, sCD4 Assay (target cells with CXCR4 alone, sCD4 200 nM added); 17b 1 µg/ml of 1.68; a β-gal, sCD4 Assay (target cells with CXCR4 alone, sCD4 200 nM added); 17b 5 µg/ml of 0.
On to “soluble CD4 (from UniProt P01730 26-208) (receptor)”, for which, in assay [2], the Total β-gal, WT Env (SF162), duplicate 1; effector cells with Env, target cells with CCR5 and no CD4; + sCD4 (100 nM) was determined as 6.6; the Total β-gal, WT Env (SF162), mean; + sCD4 (100 nM); 0.45 without sCD4 amounted to 5.9.
